The values that follow come from US20150079023A1.

The target of this experiment is CD16 (Fc receptor on NK cells) (human) (UniProt P08637). The experiment is described as follows: cell-based or functional assay.
Sequence of UniProt P08637 (P08637 17-254): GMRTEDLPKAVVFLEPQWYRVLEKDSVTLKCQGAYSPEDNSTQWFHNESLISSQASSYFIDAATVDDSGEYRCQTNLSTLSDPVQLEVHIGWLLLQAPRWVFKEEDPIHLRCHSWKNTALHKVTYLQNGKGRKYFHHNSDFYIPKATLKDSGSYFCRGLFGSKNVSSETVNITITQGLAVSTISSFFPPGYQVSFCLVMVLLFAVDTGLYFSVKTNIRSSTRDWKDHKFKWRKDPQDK

Consider rituximab (antibody), for which the % of CD69+ cells among total NK cells, 7-day CLL PBMC culture, RTX 10 ug/mL (untreated median 35.75%) is 65.2%; the median % of proliferating NK cells (CFSE dilution), 7-day CLL culture, antibody alone is 14.8%; the median % of proliferating NK cells (CFSE dilution), 7-day CLL culture, antibody plus IL-15 10 ng/mL (IL-15 alone 42.25%) came to 53.8%; the median % of viable CD19+/CD5+ B leukemic cells compared to untreated, 7 days, antibody alone stood at 79.5%. For the same substance, the median % of viable CD19+/CD5+ B leukemic cells compared to untreated, 7 days, antibody plus IL-15 10 ng/mL is 50.4%.
